Experimental data as given in patent US20250228895A1, “COMPOUNDS TO INHIBIT YTHDF2, T HELPER CELLS LACKING EXPRESSION OF YTHDF2, AND METHODS TO TREAT CANCER” (City of Hope, priority 2024, published 2025).

B1: CpG-Ythdf2 siRNA: Ythdf2 siRNA conjugated to TLR9 agonist CpG1668 ODN by carbon linker; SS SEQ ID NO:1-linker-SEQ ID NO:3, AS SEQ ID NO:2 (nucleic acid)
sense: TCCATGACGTTCCTGATGCT
chain: GCAAACUUGCAGUUUAUGUAU
antisense: AUACAUAAACUGCAAGUUUGCUU
modifications: carbon linker joining SEQ 1 and SEQ 3; modified_base 1..20 OTHER; phosphorothioate bond; modified_base 7 OTHER; Uracil; modified_base 8 OTHER; modified_base 13 OTHER; modified_base 14 OTHER; modified_base 15 OTHER; modified_base 17 OTHER; modified_base 19 OTHER; modified_base 21 OTHER; modified_base 1..3 OTHER; modified_base 2 OTHER; modified_base 6 OTHER; modified_base 11 OTHER; modified_base 18 OTHER; modified_base 22 OTHER; modified_base 23 OTHE

What was measured:
CX3CR1 = molecular target: T1, CX3CR1 (Mus musculus, UniProt Q9Z0D9); assay: Transwell BMDM migration assay with tumor supernatant and CX3CR1 blocking; type: cell-based; details: BMDMs pretreated overnight with 10 μM
T1 construct: BMDMs in the insert were pretreated overnight with 10 μM AZD8797; endogenous in cells; host or cells: primary bone-marrow-derived macrophages (BMDMs) from C57BL/6 mice
T1 sequence (Q9Z0D9 1-354): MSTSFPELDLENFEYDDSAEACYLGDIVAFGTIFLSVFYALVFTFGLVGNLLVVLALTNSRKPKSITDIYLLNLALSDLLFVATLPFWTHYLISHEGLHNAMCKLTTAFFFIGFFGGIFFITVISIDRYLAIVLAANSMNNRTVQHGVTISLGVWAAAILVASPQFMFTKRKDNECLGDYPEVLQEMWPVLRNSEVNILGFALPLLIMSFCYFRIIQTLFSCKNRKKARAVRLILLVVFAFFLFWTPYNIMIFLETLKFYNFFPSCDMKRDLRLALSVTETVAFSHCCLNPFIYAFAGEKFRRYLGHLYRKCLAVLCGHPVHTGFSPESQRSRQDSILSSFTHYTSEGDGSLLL

B16-OVA cells = assay: WT vs Ythdf2-KO B16-OVA tumor growth in C57BL/6 mice with AZD8797 or liposomal clodronate; type: in vivo, mouse; details: 1 mg/kg i.p. once per day
Excerpt: FIGS. 24A-24L show loss of YTHDF2 in tumor cells promotes the recruitment of CX3CR1^+ macrophage via CX3CL1. (A) Volcano plot showing the differentially expressed genes (DEGs) between WT and Ythdf2-KO MC38 tumor. DEGs with an absolute log-transformed fold change of >0.25 and adjusted P value of <0.05 (determined by two-sided Wilcoxon rank-sum test and adjusted using the Bonferroni correction) were defined as significant. […] (C) Heatmap of differential expression genes in leukocyte migration pathway between WT and Ythdf2-KO MC38 tumor cells. […] (E) The absolute number of CX3CR1^+F4/80^+CD11b^+ TAMs from WT and Ythdf2-KO B16-OVA tumors after tumor inoculation (n=3 tumors per group). (F) Schematic representation of a transwell coculture assay involving BMDMs treated with WT or Ythdf2-KO tumor supernatant. (G) Migration cell number of BMDMs induced by WT or Ythdf2-KO B16-OVA tumor cells cultured supernatants, measured with a transwell assay (n=3 samples per group). (H) Migration cell number of BMDMs induced by WT or Ythdf2-KO B16-OVA tumor cell culture supernatant with or without AZD8797, measured with a transwell assay (n=3 samples per group). […] C57BL/6 mice received either an intraperitoneal injection of AZD8797 (1 mg/kg) or an equal amount of PBS once per day for 13 days. Tumor size was measured (n=5 tumors per group). […] Tumor size was measured (n=5 tumors per group). […]

B16-OVA = B16-OVA tumor model, intra-tumoral CpG-Ythdf2 siRNA; type: in vivo, mouse
Excerpt: FIGS. 7A-7G: TLR9-targeted YTHDF2 silencing in TAMs suppresses tumor growth and synergizes with anti-PD-L1 blockade. FIG. 7A: Scheme of therapeutic strategies that use CpG-Ythdf2 siRNA alone or in combination with anti-PD-L1. FIG. 7B: B16-OVA or MC38 tumor growth in mice treated with CpG-Ythdf2 siRNA, CpG-scrambled siRNA, CpG only, or PBS (n=5 per group). FIG. 7C: Percentages of tumor-infiltrating IFN-γ-producing CD8^+ T cells in B16-OVA (n=5 per group) or MC38 tumor models (n=5 for PBS group; n=3 for CpG only, CpG-Scrambled siRNA, and CpG-Ythdf2 groups) as described in FIG. 7B. For the MC38 model, tumors in the CpG only, CpG-Scrambled siRNA, and CpG-Ythdf2 groups were pooled for flow cytometry due to small tumor size (sample size after pooling n=3). FIG. 7D: B16-OVA tumor growth in mice treated with CpG-Ythdf2 siRNA, CpG-scrambled siRNA, or in combination with anti-PD-L1 (left, n=5-6 per group) and percentages of tumor-infiltrating IFN-γ-producing CD8^+ T cells (right, n=5 for CpG-scrambled siRNA plus IgG and CpG-scrambled siRNA plus anti-PD-L1 groups, n=3 for CpG-Ythdf2 siRNA plus IgG and CpG-Ythdf2 siRNA plus anti-PD-L1 groups). Tumors from the CpG-Ythdf2 siRNA plus IgG and CpG-Ythdf2 siRNA plus anti-PD-L1 groups were pooled for flow cytometry due to small tumor size (sample size after pooling n=3). FIG. 7E: IFN-γ and granzyme B production by Ly95 T cells when co-cultured with WT or YTHDF2 knock-down macrophages preloaded with NY-ESO157-c165 peptide (n=5). FIGS. 7F-7G: Colon cancer sections were immunohistochemically stained with YTHDF2 plus CD68 or CD8 alone. Dash lines outline the edge of tumor zones. Asterisk marks the stroma tissues. Representative YTHDF2^+CD68^+ high (Patient #11) and YTHDF2^+CD68^+ low (Patient #2) specimens are shown (FIG. 7F). Scale bars=100 μm. Black rows mark YTHDF2^+CD68^+ cells. Correlations between YTHDF2^+CD68^+ cells and CD8^+ T cells in the stroma area are shown (FIG. 7G: n=18 patients). Data are shown as mean SD and were analyzed with one-way ANOVA with the Holm-Šídík post-test (FIGS. 7C-7E) or two-way ANOVA with mixed-effects model (FIGS. 7B, 7D) and adjusted by the Holm-Šídík post-test or Spearman correlation (FIG. 7G). Data in FIGS. 7B-7E are representative of at least two independent experiments (*P<0.05, **P<0.01, ***P<0.001, ****P<0.0001).
Tumor models and treatments. B16-OVA (2×10^5) or MC38 cells (2×10^5) were implanted subcutaneously (s.c.) into the flank of mice. […] For the lung metastatic melanoma model, B16F10 cells (1×10^5) were injected intravenously (i.v.) into the mice. Fourteen days after injection, mice were euthanized for post-mortem analysis. Metastatic nodules in the lung were analyzed macroscopically and counted. […] To co-transfer with macrophages, B16-OVA (2×10^5) or MC38 cells (2×10^5) were mixed with an equal number of bone marrow-derived macrophages (BMDMs) from WT or Ythdf2-cKO mice and implanted s.c. into the flank of WT mice, or Rag1^−/− mice injected i.v. without or with CD3^+ T cells (5×10^6). To knock down Stat1 using siRNA, BMDMs were transfected with siGENOME mouse Stat1 siRNA (Catalog: M-058881-02-0005, Horizon) at 100 nM using lipofectamine 3000 (Invitrogen). 48 h later, cells were collected and mixed with an equal number of B16-OVA cells (2×10^5) and implanted s.c. into the flank of WT mice.
For the uptake studies, CpG-Ythdf2 siRNA (SS) was labeled using […] Cy3. In vivo delivery of CpG-Ythdf2 siRNA for treatment began when the largest diameter of the tumors reached 5-8 mm-typically 5-7 days after inoculation. Mice were injected intratumorally every other day with 5 mg/kg of CpG-Ythdf2 siRNA, CpG-scrambled siRNAs, CpG alone or PBS in a volume of 20 μL. Tumor growth was monitored every other day.

MC38 = MC38 tumor model, intra-tumoral CpG-Ythdf2 siRNA; type: in vivo, mouse
Excerpt: FIGS. 7A-7G: TLR9-targeted YTHDF2 silencing in TAMs suppresses tumor growth and synergizes with anti-PD-L1 blockade. FIG. 7A: Scheme of therapeutic strategies that use CpG-Ythdf2 siRNA alone or in combination with anti-PD-L1. FIG. 7B: B16-OVA or MC38 tumor growth in mice treated with CpG-Ythdf2 siRNA, CpG-scrambled siRNA, CpG only, or PBS (n=5 per group). FIG. 7C: Percentages of tumor-infiltrating IFN-γ-producing CD8^+ T cells in B16-OVA (n=5 per group) or MC38 tumor models (n=5 for PBS group; n=3 for CpG only, CpG-Scrambled siRNA, and CpG-Ythdf2 groups) as described in FIG. 7B. For the MC38 model, tumors in the CpG only, CpG-Scrambled siRNA, and CpG-Ythdf2 groups were pooled for flow cytometry due to small tumor size (sample size after pooling n=3). […] Data are shown as mean SD and were analyzed with one-way ANOVA with the Holm-Šídík post-test (FIGS. 7C-7E) or two-way ANOVA with mixed-effects model (FIGS. 7B, 7D) and adjusted by the Holm-Šídík post-test or Spearman correlation (FIG. 7G). […]
(§1) Tumor models and treatments. […] Metastatic nodules in the lung were analyzed macroscopically and counted. […]
For the uptake studies, CpG-Ythdf2 siRNA (SS) was labeled using fluorescein Cy3. […] Tumor growth was monitored every other day.

B16F10 = B16F10 lung metastasis model, intravenous CpG-Ythdf2 siRNA; type: in vivo, mouse
Method: FIGS. 15A-15P: TLR9 expression and CpG-Ythdf2 siRNA design as well as its uptake by macrophages associated with anti-tumor effect in vivo. FIG. 15A: Violin plot showing the Tlr9 expression across 15 cell clusters from scRNA-seq data in this study. FIG. 15B: Sequence of the CpG-linked mouse Ythdf2 siRNA conjugate (CpG-Ythdf2 siRNA). FIGS. 15C-15D: BMDMs were incubated with different doses of Cy3-labeled CpG-Ythdf2 siRNA (FIG. 15C) or with 100 nM Cy3-labeled CpG-Ythdf2 siRNA for the indicated times (FIG. 15D). CpG-Ythdf2 siRNA uptake was examined by flow cytometry. Data shown are representative histograms. FIG. 15E: Cy3-labeled CpG-Ythdf2 siRNA or CpG only was injected into B16-OVA tumors of C57BL/6 mice. […] Data shown are representative histograms. FIG. 15F: mRNA levels of Ythdf2 in macrophages sorted from tumor tissues of B16-OVA-bearing mice treated with CpG-Ythdf2 siRNA or CpG-scrambled siRNA (n=3 per group). […] Median fluorescence intensity (MFI) is shown. Data are shown as mean±SD and were analyzed with an unpaired two-tailed t-test (FIGS. 15F-15I) or one-way ANOVA with the Holm-Šídík post-test (FIGS. 15J-15K) or two-way ANOVA with the mixed-effects model and adjusted by Holm-Šídík post-test (FIG. 15L). […]
as §1

Ythdf2 mRNA = assay: qPCR of Ythdf2 mRNA in sorted TAMs of treated B16-OVA-bearing mice; type: in vivo, mouse; details: vs CpG-scrambled siRNA group
Method: FIGS. 15A-15P: TLR9 expression and CpG-Ythdf2 siRNA design as well as its uptake by macrophages associated with anti-tumor effect in vivo. FIG. 15A: Violin plot showing the Tlr9 expression across 15 cell clusters from scRNA-seq data in this study. FIG. 15B: Sequence of the CpG-linked mouse Ythdf2 siRNA conjugate (CpG-Ythdf2 siRNA). FIGS. 15C-15D: BMDMs were incubated with different doses of Cy3-labeled CpG-Ythdf2 siRNA (FIG. 15C) or with 100 nM Cy3-labeled CpG-Ythdf2 siRNA for the indicated times (FIG. 15D). CpG-Ythdf2 siRNA uptake was examined by flow cytometry. Data shown are representative histograms. FIG. 15E: Cy3-labeled CpG-Ythdf2 siRNA or CpG only was injected into B16-OVA tumors of C57BL/6 mice. […] Median fluorescence intensity (MFI) is shown. Data are shown as mean±SD and were analyzed with an unpaired two-tailed t-test (FIGS. 15F-15I) or one-way ANOVA with the Holm-Šídík post-test (FIGS. 15J-15K) or two-way ANOVA with the mixed-effects model and adjusted by Holm-Šídík post-test (FIG. 15L). […]
Quantitative real-time RT-PCR (qPCR). RNA was isolated using an RNeasy Mini Kit (QIAGEN) and then reverse transcribed to cDNA with PrimeScript RT Reagent Kit with gDNA Eraser (Takara Bio) following the manufacturer's instructions. mRNA expression levels were analyzed using SYBR Green PCR Master Mix and a QuantStudio 12K Flex Real-Time PCR System (both from Thermo Fisher Scientific).

[1] = 5 mg/kg intratumorally every other day, vs CpG-scrambled siRNA
[2] = intra-tumoral, vs CpG-scrambled siRNA
[3] = vs CpG-Ythdf2 siRNA alone or anti-PD-L1 mAb alone

| Molecule | macrophage migration induced by WT vs Ythdf2-KO tumor supernatant (CX3CR1) | difference of tumor growth between WT and Ythdf2-KO tumor (B16-OVA cells) | tumor growth (B16-OVA; [1]) | tumor growth in Batf3 KO mice (B16-OVA; Batf3 KO mice lacking cDC1 cells, vs CpG-scrambled siRNA) | proportion of M1 TAMs (B16-OVA; [2]) | proportion of M2 TAMs (B16-OVA; [2]) | CD8+ cytotoxic T cell responses, combination with anti-PD-L1 antibody (B16-OVA; [3]) | tumor growth, combination with anti-PD-L1 antibody (B16-OVA; [3]) | percentage of IFN-γ-producing CD8+ T cells (B16-OVA; vs CpG-scrambled siRNA group) | tumor growth (MC38; [1]) | percentage of IFN-γ-producing CD8+ T cells (MC38; vs CpG-scrambled siRNA group) | tumor metastasis (lung metastatic nodules) (B16F10; intravenous injection, vs CpG-scrambled siRNA) | percentage of IFN-γ-producing CD8+ T cells (B16F10; lung, vs CpG-scrambled siRNA group) | mRNA levels of Ythdf2 in sorted TAMs (Ythdf2 mRNA) |
| --- | --- | --- | --- | --- | --- | --- | --- | --- | --- | --- | --- | --- | --- | --- |
| CC(C)C[C@H](CO)Nc1nc(S[C@@H](C)c2ccccc2)nc2nc(N)sc12 [AZD8797] | differences in macrophage migration between WT and Ythdf2 KO groups disappeared | abolished the difference of tumor growth |  |  |  |  |  |  |  |  |  |  |  |  |
| B1 |  |  | significantly inhibited tumor growth | still inhibited tumor growth | significantly up-regulated | down-regulated | increased | reduced tumor growth | significantly higher | significantly inhibited tumor growth | significantly higher | inhibited tumor metastasis | significantly higher | significantly lower |
